Legend:
[1] = molecular target: TLR5 (endogenous, on Jurkat JE6-1 NF-κB::eGFP reporter cells) (human (endogenous in Jurkat JE6-1)) (UniProt O60602)
[2] = molecular target: TLR5 (endogenous, on Jurkat JE6-1 NF-κB::eGFP reporter cells) (human (endogenous in Jurkat JE6-1)) (UniProt O60602); remark: listed apart in the source

UniProt O60602, sequence (O60602 21-858): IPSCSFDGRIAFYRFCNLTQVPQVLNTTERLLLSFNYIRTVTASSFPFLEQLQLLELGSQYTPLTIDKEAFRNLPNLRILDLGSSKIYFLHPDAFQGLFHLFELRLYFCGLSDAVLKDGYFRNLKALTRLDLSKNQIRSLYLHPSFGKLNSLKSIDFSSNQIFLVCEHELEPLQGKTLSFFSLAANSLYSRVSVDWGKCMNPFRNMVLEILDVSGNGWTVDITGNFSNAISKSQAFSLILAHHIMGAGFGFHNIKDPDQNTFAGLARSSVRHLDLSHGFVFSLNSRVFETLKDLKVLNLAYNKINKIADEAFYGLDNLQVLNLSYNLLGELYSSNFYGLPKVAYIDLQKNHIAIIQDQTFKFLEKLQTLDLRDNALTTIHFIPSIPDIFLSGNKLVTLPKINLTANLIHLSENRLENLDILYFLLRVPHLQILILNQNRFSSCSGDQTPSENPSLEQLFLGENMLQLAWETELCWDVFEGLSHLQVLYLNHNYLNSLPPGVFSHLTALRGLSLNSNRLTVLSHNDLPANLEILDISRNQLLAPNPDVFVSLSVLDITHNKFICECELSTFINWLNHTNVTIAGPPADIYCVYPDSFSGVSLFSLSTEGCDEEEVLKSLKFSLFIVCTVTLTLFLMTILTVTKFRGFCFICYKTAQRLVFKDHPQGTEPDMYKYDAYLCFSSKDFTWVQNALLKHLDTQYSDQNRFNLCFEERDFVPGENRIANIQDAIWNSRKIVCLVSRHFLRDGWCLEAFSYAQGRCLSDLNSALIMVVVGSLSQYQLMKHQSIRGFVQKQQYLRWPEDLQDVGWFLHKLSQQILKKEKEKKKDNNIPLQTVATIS

Q: With “flagellin purified from S. typhimurium (Fla-ST standard and Fla-ST ultrapure) (from UniProt P06179 1-495) (ligand)” as the substance, how does the limit of detection (concentration giving a 1.5-fold increase of eGFP) in JE6-1 TLR5 NF-κB::eGFP reporter cells, flagellin titrated [1] read?
A: Its limit of detection (concentration giving a 1.5-fold increase of eGFP) in JE6-1 TLR5 NF-κB::eGFP reporter cells, flagellin titrated is 10 pg/mL.

Q: And the NF-κB::eGFP expression in Jurkat JE6-1 reporter cells (endogenous TLR5), flagellin titrated, 24 h, flow cytometry; lowest concentration giving detectable eGFP [2]?
A: Its NF-κB::eGFP expression in Jurkat JE6-1 reporter cells (endogenous TLR5), flagellin titrated, 24 h, flow cytometry; lowest concentration giving detectable eGFP is less than 100 pg/mL.
